Test results: the Human Domainome abundance scans (Beltran et al. 2025)

B1: Myocardin-related transcription factor A, residues 341 to 383; numbered along this chain, Q969V6 (parent)
chain: GALPANLDDMKVAELKQELKLRSLPVSGTKTELIERLRAYQDQ
B2: Gamma-crystallin D, residues 90 to 170; numbered along this chain, P07320 (parent)
chain: IRLYEREDYRGQMIEFTEDCSCLQDRFRFNEIHSLNVLEGSWVLYELSNYRGRQYLLMPGDYRRYQDWGATNARVGSLRRV

Variants of: B1
Experiment: abundance fitness (aPCA) (normalised: wild type 0, dead -1); higher = more abundant; growth selection in yeast, the domain comes from the species named
Settings: Homo sapiens

Abundance fitness, by site and new letter:
Q41: W 0.083 | R 0.089 | V 0.055 | G 0.262 | F 0.222 | M 0.107 | N 0.18 | K 0.202 | C 0.061 | I -0.021 | L 0.069 | Y -0.307 | S 0.081 | P 0.066 | H -0.125
R38: D -0.588 | Q -0.24 | P -0.107 | A 0.2 | F -0.626 | T -0.233 | W -0.236 | E 0.074 | Y -0.053 | K -0.138 | I -0.086 | G -0.047 | S -0.126 | H -0.201 | C -0.301 | M -0.052 | L -0.224 | V -0.152
A39: K 0.284 | P 0.168 | N 0.259 | Y 0.129 | E 0.411 | S 0.221 | Q 0.205 | W 0.074 | F -0.127 | I -0.034 | V 0.187 | L 0.168
Y40: G 0.202 | M 0.02 | Q -0.189 | T 0.08 | W 0.178 | S 0.246 | F 0.12 | E 0.179 | D 0.308 | N 0.127 | A 0.247 | K -0.103 | L -0.062 | C 0.127 | V 0.179 | R 0.042 | P 0.192 | H 0.228
D42: R -0.234 | H -0.23 | P 0.059 | I -0.538 | A 0.205 | K 0.022 | Q -0.087 | N 0.186 | C 0.045 | E 0.137 | W -0.31 | T 0.037 | S -0.017 | L -0.081
L37: W -0.403 | T -0.416 | S -0.419 | V -0.3 | R -0.462 | Q -0.631
Q43: H -0.01 | W 0.208 | S -0.029 | I 0.042 | V 0.334 | R 0.567 | T 0.164 | C -0.037 | E 0.357

Variants of: B2
Experiment: as above
Settings: Homo sapiens

Abundance fitness, by site and new letter:
R63: A 0.024 | W 0.031 | N -0.079 | D 0.129 | S -0.037
A73: H 0.151 | Q 0.09 | V 0.066 | T 0.126 | E -0.012
V37: W -0.895 | P 0.153 | K -0.7
N72: I 0.21 | W 0.233
F16: S 0.035 | W 0.143 | L 0.08 | K -0.118 | N 0.095 | D -0.163
Q12: I -0.061 | P 0 | E -0.105
L23: A 0.086 | G -0.24 | S 0.14 | I -0.098 | Q -0.217
R79: I -0.175
G40: P -0.077 | E 0.076 | V 0.025 | R -0.142 | F -0.031 | Y -0.104
S34: I -0.84 | R -0.766 | C -0.014
E46: S -0.113 | M -0.095 | G -0.263 | W -0.783 | N -0.343
A70: V 0.044 | C 0.074 | P 0.047 | W 0.032 | N 0.136 | I 0.024
C20: V -0.061 | L -0.01 | Y 0.3
R64: E -0.226 | C -0.141 | G -0.017 | Y 0.035 | W 0.095
L47: V -0.142 | Q 0.084
D19: T 0.039 | A -0.116 | S -0.115 | Y -0.155
L44: P -1.04 | Q -0.563 | A 0.006
Y50: S -0.501 | A -0.493 | Q -0.197 | V -0.979 | C -0.44 | L -0.383 | M -0.144
E5: A -0.086
